Source: publication PMC3820547

Legend:
[1] = molecular target: Replication Protein A (Q9V1Z1, Q9V1Y9, Q9V1Z0), His-tagged RPA complex (Pyrococcus abyssi); test: SPR; RPA (100 nM, 10 min) held on a 5' biotinylated 32-mer ssDNA on a streptavidin surface; analytes injected at 16.67, 50, 150 and 450 nM; 25°C, PBS Tween 0.5%, 20 uL/min; referenced against ssDNA/RPA dissociation curves; 1:1 binding model
[2] = molecular target: A1 subunit of the RNA polymerase, endogenous (Pyrococcus abyssi (endogenous in P. abyssi cell extract))
[3] = molecular target: A2 subunit of the RNA polymerase, endogenous (Pyrococcus abyssi (endogenous in P. abyssi cell extract))

| stability relative to the RPA/catalytic subunit of DNA primase complex (from the dissociation constants of Figure 2) [1] | run-off transcripts in a promoter-specific in vitro transcription assay (gdh promoter; RNAP, TBP and TFB from P. furiosus), RPA 10-50 nM [2] | run-off transcripts in a promoter-specific in vitro transcription assay (gdh promoter; RNAP, TBP and TFB from P. furiosus), RPA 10-50 nM [3] | Substance |
| --- | --- | --- | --- |
| 2 fold |  |  | DNA Polymerase D (Q9V2F3, Q9V2F4), HIS-tagged complex (from UniProt Q9V2F3 1-619; Q9V2F4 1-1455) |
|  | 3 fold | 3 fold | Replication Protein A (Q9V1Z1, Q9V1Y9, Q9V1Z0), His-tagged RPA complex |
